According to patent US4609623A, “Microbiologically produced D-2-hydroxy-4-methylpentanoic acid dehydrogenase, process for its production and its use” (Degussa AG, priority 1983, dated 1986):
Each block holds one molecule with its values, some of them ahead of it.

Columns and labels:
[1] = molecular target: T1, D-2-hydroxy-4-methylpentanoic acid dehydrogenase (Lacticaseibacillus paracasei, UniProt P17584); assay: Reduction kinetics: reaction velocity versus NADH and 2-ketocarboxylic acid concentration; assay type: biochemical, Lactobacillus casei ssp. pseudoplantarum; parameters: endogenous in cells; host or cells: Lactobacillus casei ssp. pseudoplantarum DSM 20008, enzyme isolated from the cells grown in house
T1 sequence (P17584 1-333): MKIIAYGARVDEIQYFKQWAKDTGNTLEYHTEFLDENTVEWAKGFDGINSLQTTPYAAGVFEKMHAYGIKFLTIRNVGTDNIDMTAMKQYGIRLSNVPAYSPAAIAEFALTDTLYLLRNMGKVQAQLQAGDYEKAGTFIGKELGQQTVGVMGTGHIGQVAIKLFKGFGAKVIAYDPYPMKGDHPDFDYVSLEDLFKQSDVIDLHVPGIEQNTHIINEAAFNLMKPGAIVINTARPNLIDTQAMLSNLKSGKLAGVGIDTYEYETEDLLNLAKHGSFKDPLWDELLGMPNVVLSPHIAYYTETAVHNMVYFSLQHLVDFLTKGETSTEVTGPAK
Procedure: The reaction speed for reduction of different 2-ketocarboxylic acids was also investigated as a function of the keto acid concentration. […] The ketocarboxylic acid concentration was in each case varied from 0.01 to a maximum of 60 mM. The initial reaction velocity, change of extinction at 340 nm/min, was evaluated by non-linear regression of the Michaelis-Menten equation.

[2] = molecular target: T1, D-2-hydroxy-4-methylpentanoic acid dehydrogenase; assay: Dehydrogenation kinetics: reaction velocity versus NAD+ and 2-hydroxycarboxylic acid concentration
Procedure: The dependence of the reaction velocity on the NAD^+ concentration in the dehydrogenation of D-2-hydroxy-4-methylpentanoic acid was studied in the following test mixture: 0.1M phosphate buffer at pH 8.0, 12 mM D,L-2-hydroxy-4-methylpentanoic acid, limiting quantities of enzyme.
The dependence of the reaction speed on the concentration of different 2-hydroxycarboxylic acids for the dehydrogenation of D-2-hydroxycarboxylicacids was tested in the following test mixture: 0.1M phosphate buffer at pH 8.0, 4.5 mM NAD^+ and limiting quantities of enzyme. The concentration of D-2-hydroxycarboxylic acid was varied in the range from 0.1 to a maximum of 30 mM. Inasmuch as no chiral D-2-hydroxycarboxylic acid was available, the racemate was added. […] The initial reaction velocity was evaluated according to Michaelis-Menten, and the kinetic constants Vmax and KM determined by non-linear regression.

[3] = molecular target: T1, D-2-hydroxy-4-methylpentanoic acid dehydrogenase; assay: Reduction of 2-ketocarboxylic acids in an enzyme membrane reactor with PEG-NADH, polarimetric read-out; assay type: biochemical, Lactobacillus casei ssp. pseudoplantarum (DSM 20008); parameters: endogenous in cells; host or cells: Lactobacillus casei ssp. pseudoplantarum DSM 20008, enzyme isolated from the cells grown in house; conditions: 7.0 mM 2-ketocarboxylic acid feed, stationary value; for Rotation of Production Solution: 463 nm, 25° C.
Procedure: (Preparation according to DE-PS 28 41 414). The following keto acids were converted individually in the reactor:
2-keto-4-methylpentanoic acid (sodium salt), 2-keto-4-(methylmercapto)-butyric acid (sodium salt) and phenyl pyruvate (sodium salt). The product stream flowing out of the membrane reactor was analyzed continuously in a polarimeter. The signals obtained were evaluated by means of calibration curves which had been obtained from optically active 2-hydroxy acids.
The PEG-NADH is prepared according to DE-PS No. 28 41 414. […] The reactor volume is kept constant, by adding keto acid and sodium formate buffer from a reservoir at the same rate as the ultrafiltrate leaves the reactor. The reactor volume was 10 ml, the concentration of PEG-NADH 0.20 mM, and 9 U D-2-hydroxy-4-methylpentanoic acid dehydrogenase (27 U/mg) and 30 U formate-dehydrogenase were fed into the reactor. The substrate solution contained 300 mM sodium formate buffer of pH 7.0 and 7.0 mM of the corresponding 2-ketocarboxylic acid. The reaction solution was pumped over the membrane continuously with a peristaltic pump at 30 ml/hour. About 3 ml ultrafiltrate per hour was obtained. The ultrafiltrate was led continuously through a polarimeter cell (Perkin Elmer Type 241). The determinations were carried out at 463 nm and 25° C. From the measured rotatory value, the product concentration was determined from a calibration curve. The calibration curves were prepared with optically active 2-hydroxycarboxylic acids in 300 mM sodium formate buffer of pH 7.0. For this, the following preparations were used: L-phenyllactic acid (Sigma Company, Munich), L-2-hydroxy-4-methylpentanoic acid (Sigma Company, Munich), and D-2-hydroxy-4-(methylmercapto)-butyric acid (Degussa Company, Hanau). The conversion in the membrane reactor was followed over a period of 15 hours.

[4] = substrate: CC(C)CC(O)C(=O)O; assay: purified protein, by the assay type; conditions: other: dehydrogenation, pH 8.0, 4.5 mM NAD+, calculated assuming 50% D-acid in the racemic mixtures
[5] = substrate: CC(C)C[C@@H](O)C(=O)O; assay: purified protein, by the assay type; conditions: other: dehydrogenation, pH 8.0, 4.5 mM NAD+, calculated assuming 50% D-acid in the racemic mixtures
[6] = substrate: CCCC(O)C(=O)O; assay: purified protein, by the assay type; conditions: other: dehydrogenation, pH 8.0, 4.5 mM NAD+, calculated assuming 50% D-acid in the racemic mixtures
[7] = substrate: CCCCC(O)C(=O)O; assay: purified protein, by the assay type; conditions: other: dehydrogenation, pH 8.0, 4.5 mM NAD+, calculated assuming 50% D-acid in the racemic mixtures
[8] = substrate: CCCCCCC(O)C(=O)O; assay: purified protein, by the assay type; conditions: other: dehydrogenation, pH 8.0, 4.5 mM NAD+, calculated assuming 50% D-acid in the racemic mixtures
[9] = substrate: CSCCC(O)C(=O)O; assay: purified protein, by the assay type; conditions: other: dehydrogenation, pH 8.0, 4.5 mM NAD+, calculated assuming 50% D-acid in the racemic mixtures
[10] = substrate: NC(=O)C1=CN([C@@H]2O[C@H](COP(=O)(O)OP(=O)(O)OC[C@H]3O[C@@H](n4cnc5c(N)ncnc54)[C@H](O)[C@@H]3O)[C@@H](O)[C@H]2O)C=CC1; assay: purified protein, by the assay type; conditions: other: pH 7.0, 0.7 mM 2-keto-4-methylpentanoic acid
[11] = substrate: NC(=O)c1ccc[n+]([C@@H]2O[C@H](COP(=O)([O-])OP(=O)(O)OC[C@H]3O[C@@H](n4cnc5c(N)ncnc54)[C@H](O)[C@@H]3O)[C@@H](O)[C@H]2O)c1; assay: purified protein, by the assay type; conditions: other: pH 8.0, 12 mM D,L-2-hydroxy-4-methylpentanoic acid
[12] = substrate: O=C(O)C(=O)Cc1ccccc1; assay: purified protein, by the assay type; conditions: other: reduction, pH 7.0, 0.1 mM NADH
[13] = substrate: O=C(O)C(O)Cc1ccccc1; assay: purified protein, by the assay type; conditions: other: dehydrogenation, pH 8.0, 4.5 mM NAD+, calculated assuming 50% D-acid in the racemic mixtures
[14] = substrate: CC(C)C(=O)C(=O)O; assay: purified protein, by the assay type; assay type: biochemical, Lactobacillus casei ssp. pseudoplantarum; conditions: other: reduction, pH 7.0, 0.1 mM NADH
[15] = substrate: CC(C)CC(=O)C(=O)O; assay: purified protein, by the assay type; assay type: biochemical, Lactobacillus casei ssp. pseudoplantarum; conditions: other: reduction, pH 7.0, 0.1 mM NADH
[16] = substrate: CCC(=O)C(=O)O; assay: purified protein, by the assay type; assay type: biochemical, Lactobacillus casei ssp. pseudoplantarum; conditions: other: reduction, pH 7.0, 0.1 mM NADH
[17] = substrate: CCC(C)C(=O)C(=O)O; assay: purified protein, by the assay type; assay type: biochemical, Lactobacillus casei ssp. pseudoplantarum; conditions: other: reduction, pH 7.0, 0.1 mM NADH
[18] = substrate: CCCC(=O)C(=O)O; assay: purified protein, by the assay type; assay type: biochemical, Lactobacillus casei ssp. pseudoplantarum; conditions: other: reduction, pH 7.0, 0.1 mM NADH
[19] = substrate: CCCCC(=O)C(=O)O; assay: purified protein, by the assay type; assay type: biochemical, Lactobacillus casei ssp. pseudoplantarum; conditions: other: reduction, pH 7.0, 0.1 mM NADH
[20] = substrate: CCCCCCC(=O)C(=O)O; assay: purified protein, by the assay type; assay type: biochemical, Lactobacillus casei ssp. pseudoplantarum; conditions: other: reduction, pH 7.0, 0.1 mM NADH
[21] = substrate: CSCCC(=O)C(=O)O; assay: purified protein, by the assay type; assay type: biochemical, Lactobacillus casei ssp. pseudoplantarum; conditions: other: reduction, pH 7.0, 0.1 mM NADH
[22] = substrate: O=C(O)C(=O)CS; assay: purified protein, by the assay type; assay type: biochemical, Lactobacillus casei ssp. pseudoplantarum; conditions: other: reduction, pH 7.0, 0.1 mM NADH

Replacement of the coenzyme NADH ([1]; checked up to a test concentration of 0.2 mM): cannot replace
Molecule: NC(=O)C1=CN([C@@H]2O[C@H](COP(=O)(O)OP(=O)(O)OC[C@H]3O[C@@H](n4cnc5c(N)ncnc54)[C@H](OP(=O)(O)O)[C@@H]3O)[C@@H](O)[C@H]2O)C=CC1 [NADPH]

Replacement of the coenzyme NAD+ ([2]; checked at test concentrations up to 10 mM): cannot replace
Molecule: NC(=O)c1ccc[n+]([C@@H]2O[C@H](COP(=O)([O-])OP(=O)(O)OC[C@H]3O[C@@H](n4cnc5c(N)ncnc54)[C@H](OP(=O)(O)O)[C@@H]3O)[C@@H](O)[C@H]2O)c1 [NADP]

Rotation of Production Solution [3]: -0.047 ° | % conversion [3]: 100% | Product concentration [3]: 7.0 mM
Molecule: CC(C)CC(=O)C(=O)O [2-keto-4-methylpentanoic acid]

NADH concentration at which the optimal reaction velocity was reached ([1]; pH 7.0, 0.7 mM 2-keto-4-methylpentanoic acid): 0.10 mM
Molecule: NC(=O)C1=CN([C@@H]2O[C@H](COP(=O)(O)OP(=O)(O)OC[C@H]3O[C@@H](n4cnc5c(N)ncnc54)[C@H](O)[C@@H]3O)[C@@H](O)[C@H]2O)C=CC1 [NADH]

Rotation of Production Solution [3]: -0.071 ° | % conversion [3]: 98% | Product concentration [3]: 6.9 mM
Molecule: CSCCC(=O)C(=O)O [2-keto-4-(methylmercapto)-butyric acid]

Molecule: NC(=O)c1ccc[n+]([C@@H]2O[C@H](COP(=O)([O-])OP(=O)(O)OC[C@H]3O[C@@H](n4cnc5c(N)ncnc54)[C@H](O)[C@@H]3O)[C@@H](O)[C@H]2O)c1 [NAD^+, nicotinamide-adeninedinucleotide]
NAD+ concentration at which the optimum conversion is reached ([2]; pH 8.0, 12 mM D,L-2-hydroxy-4-methylpentanoic acid): 4.5 mM

Rotation of Production Solution [3]: -0.115 ° | % conversion [3]: 100% | Product concentration [3]: 7.0 mM
Molecule: O=C(O)C(=O)Cc1ccccc1 [2-keto-3-phenylpropionic acid]

B1: D-2-hydroxy-4-methylpentanoic acid dehydrogenase (Lacticaseibacillus paracasei) (protein)
chain: T1 sequence (P17584 1-333)
notes: 500 g Lactobacillus casei ssp. pseudoplantarum (DSM 20008) wet mass was suspended in 50 mM phosphate buffer; endogenous in cells; host or cells: Lactobacillus casei ssp. pseudoplantarum DSM 20008, enzyme isolated from the cells grown in house
Km [4]: 1400 µM | Vmax [4]: 20.2 µmol/min/mg | Km [5]: 1400 µM | Vmax [5]: 20.2 µmol/min/mg | Km [6]: 700 µM | Vmax [6]: 10.8 µmol/min/mg | Km [7]: 470 µM | Vmax [7]: 11.3 µmol/min/mg | Km [8]: 310 µM | Vmax [8]: 10.0 µmol/min/mg | Km [9]: 1500 µM | Vmax [9]: 2.6 µmol/min/mg | Km [10]: 10 µM | Km [11]: 450 µM | Km [12]: 150 µM | Vmax [12]: 304.4 µmol/min/mg | Km [13]: 1100 µM | Vmax [13]: 32.6 µmol/min/mg | Km [14]: 4800 µM | Vmax [14]: 16.9 µmol/min/mg | Km [15]: 60 µM | Vmax [15]: 27.4 µmol/min/mg | Km [16]: 1700 µM | Vmax [16]: 45.9 µmol/min/mg | Km [17]: 2200 µM | Vmax [17]: 26.2 µmol/min/mg | Km [18]: 110 µM | Vmax [18]: 59.1 µmol/min/mg | Km [19]: 110 µM | Vmax [19]: 58.4 µmol/min/mg | Km [20]: 310 µM | Vmax [20]: 54.0 µmol/min/mg | Km [21]: 620 µM | Vmax [21]: 82.1 µmol/min/mg | Km [22]: 400 µM | Vmax [22]: 104.5 µmol/min/mg
